# Assay results: PMC12360457 (Nature, 2025)
# B1: Hailong protein A (HalA) from Rhodobacteraceae bacterium QY30, purified as the detergent-solubilized HalA–ODA complex (natural protein)
# chain: DTNAVKEPEPALPSAASRGRRTKNWWEPMFDANAPASFSVSDWNFSNNRGPRCTLFLAEKMPDATTLVVKDIDFQDCDFQGTFERKIVFKDCKFTRCDFGLSTFSRTKFSGCSFYASSFTQCTLENCEFRNCKYEKIFYSGNETQIPRTLIAEPYQFLFGACATVDSVPQGKSRFEQRARFEETRSTIARALLANLHSEGSEDTYYAAVKASTLSENRARIARALIKINSSASKGKSIISRAVSFLTGFASAISAVVGMLILLVMGSLNGWGSSISRAMLVGVVAISCVAYRYHYRFNLPPEDAMVKATEIFFLFGYTNYAKMGQEDFHLVFSNALLGLFWYAIAIPTISNRLTRARG
# Biological target: the molecule itself
# Experiment: cryo-EM structure
protein,measurement,value
B1,binding result,binds
